Results on 50 sequences are retold here after the supplement of paper PMC10724198.

± gives the standard deviation of the averaged measurements.

This data set relates to Saccharomyces cerevisiae. Briefly: protein stability index of tFT-peptide fusion (C-terminal peptide) (PSI (0-1 scale)); higher = more stable (slower turnover). Conditions: temperature: 30 C. On the procedure:
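MPS profiling in S. cerevisiae of the yeast C-terminome library: the last 12 aa of each annotated ORF are fused to the C-terminus of a sfGFP-mCherry timer, after a GGGS linker. Cells are FACS-sorted into 8 mCherry/sfGFP bins and deep-sequenced. PSI runs from 0 (unstable) to 1 (stable); wild type and das1Δ backgrounds, two technical replicates each.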

The mark [1] stands for this setting: genetic background: das1 deletion.

For LRTTSSMEKKLN [ALG3 C-terminal 12 aa], the protein stability index under setting [1] came out at 0.7064 ± 0.00072 and the protein stability index (genetic background: wild type) was found to be 0.205 ± 0.0049.

On to LSADGIYTAVPN [PAU17 C-terminal 12 aa], for which the protein stability index was found to be 0.695 ± 0.018 under setting [1] and 0.702 ± 0.011 (genetic background: wild type).

Consider LSAETGIRGEGE [YIL100W C-terminal 12 aa], for which the protein stability index reads like this: under setting [1], 0.6849 ± 0.0034; (genetic background: wild type) 0.71 ± 0.029.

For the sequence LSKDGIYTAVPN [PAU23 C-terminal 12 aa], the protein stability index reads like this: under setting [1], 0.6917 ± 0.0018; (genetic background: wild type) 0.702 ± 0.0078.

For the sequence LSKKDYSIDSIE [TPO3 C-terminal 12 aa], the protein stability index runs as follows: under setting [1], 0.726 ± 0.011; (genetic background: wild type) 0.6981 ± 0.0023.

Regarding LSKMYIGWLPFW [MEC1 C-terminal 12 aa], the protein stability index stood at 0.7227 ± 0.0057 under setting [1] and 0.6826 ± 0.002 (genetic background: wild type).

Regarding LSLTLVSIIKTA [COG2 C-terminal 12 aa], the protein stability index is, setting by setting: under setting [1], 0.618 ± 0.025; (genetic background: wild type) 0.193 ± 0.0064.

As for “LSNQNSPLFLYH [YHR175W-A C-terminal 12 aa]”, the protein stability index under setting [1] is 0.7053 ± 0.0058 and the protein stability index (genetic background: wild type) was found to be 0.705 ± 0.015.

With “LSPSYSCRYHGR [YPL152W-A C-terminal 12 aa]”, the protein stability index stood at 0.7126 ± 0.0044 under setting [1] and 0.6832 ± 0.004 (genetic background: wild type).

In the case of LSVIYMGWSPFY [TEL1 C-terminal 12 aa], the protein stability index is, setting by setting: under setting [1], 0.716 ± 0.018; (genetic background: wild type) 0.773 ± 0.032.

LSVTLGEGKYHH [CSG2 C-terminal 12 aa]: the protein stability index reads like this: under setting [1], 0.685 ± 0.03; (genetic background: wild type) 0.686 ± 0.034.

Take LTVLCVILGYVL [UTR2 C-terminal 12 aa]: the protein stability index is, setting by setting: under setting [1], 0.5761 ± 0.00066; (genetic background: wild type) 0.645 ± 0.048.

Regarding LTWSLAYSGAFS [ACF2 C-terminal 12 aa], the protein stability index reads like this: under setting [1], 0.7217 ± 0.0012; (genetic background: wild type) 0.686 ± 0.013.

On to LVIDQITQLRQQ [COG1 C-terminal 12 aa], for which the protein stability index is, setting by setting: under setting [1], 0.6966 ± 0.0015; (genetic background: wild type) 0.6158 ± 0.0047.

As for LVIKRRGFEINT [PET122 C-terminal 12 aa], the protein stability index amounted to 0.66 ± 0.015 under setting [1] and 0.721 ± 0.043 (genetic background: wild type).

Take LYGKYNYAAQKV [YDL124W C-terminal 12 aa]: the protein stability index was 0.692 ± 0.013 under setting [1] and 0.333 ± 0.014 (genetic background: wild type).

Turning to LYKRWVPGRNRD [SEN2 C-terminal 12 aa], the protein stability index was found to be 0.696 ± 0.0095 under setting [1] and 0.696 ± 0.034 (genetic background: wild type).

Take LYVTVFNRSDEA [AVT7 C-terminal 12 aa]: the protein stability index turned out to be 0.6773 ± 0.0036 under setting [1] and 0.6811 ± 0.0037 (genetic background: wild type).

Regarding MEDILDETTELD [ATG40 C-terminal 12 aa], the protein stability index under setting [1] was 0.7155 ± 0.0025 and the protein stability index (genetic background: wild type) came to 0.715 ± 0.072.

As to MEKENSGLIAFS [HOS2 C-terminal 12 aa], the protein stability index reads like this: under setting [1], 0.7089 ± 0.0061; (genetic background: wild type) 0.7064 ± 0.0059.

For the sequence MELWYTCLSKNL [YCR050C C-terminal 12 aa], the protein stability index reads like this: under setting [1], 0.694 ± 0.048; (genetic background: wild type) 0.671 ± 0.034.

As for MERRARQQRGQD [MND2 C-terminal 12 aa], the protein stability index was determined as 0.71114 ± 0.0003 under setting [1] and 0.717 ± 0.046 (genetic background: wild type).

As to MFGVHDKSVIIE [NSE5 C-terminal 12 aa], the protein stability index came out at 0.692 ± 0.058 under setting [1] and 0.7 ± 0.032 (genetic background: wild type).

For MFKFNVHKKSKV [TAD2 C-terminal 12 aa], the protein stability index runs as follows: under setting [1], 0.72 ± 0.015; (genetic background: wild type) 0.758 ± 0.048.

With MGDEYVSSDEDF [HEF3 C-terminal 12 aa], the protein stability index under setting [1] was determined as 0.7279 ± 0.0024 and the protein stability index (genetic background: wild type) came out at 0.686 ± 0.054.

In turn, MGISSNSFQGVN [KDX1 C-terminal 12 aa] displayed a protein stability index under setting [1] of 0.70379 ± 8.7e-05 and a protein stability index (genetic background: wild type) of 0.6626 ± 0.0032.

For the sequence MGVFILFLDYVG [UFE1 C-terminal 12 aa], the protein stability index reads like this: under setting [1], 0.277 ± 0.032; (genetic background: wild type) 0.314 ± 0.013.

Take MKGPAALWDVQF [ARP9 C-terminal 12 aa]: the protein stability index reads like this: under setting [1], 0.724 ± 0.012; (genetic background: wild type) 0.744 ± 0.044.

Turning to MKRSASYTGAKV [TPS2 C-terminal 12 aa], the protein stability index under setting [1] was 0.7 ± 0.02 and the protein stability index (genetic background: wild type) was 0.709 ± 0.043.

With MLCTLTGYQNND [NUP192 C-terminal 12 aa], the protein stability index is, setting by setting: under setting [1], 0.7282 ± 0.0051; (genetic background: wild type) 0.685 ± 0.017.

MPGGMPGMPGMM [HSP60 C-terminal 12 aa]: the protein stability index runs as follows: under setting [1], 0.7 ± 0.00077; (genetic background: wild type) 0.709 ± 0.0041.

Consider MQRVSTQHEKET [PMA1 C-terminal 12 aa], for which the protein stability index is, setting by setting: under setting [1], 0.715 ± 0.0091; (genetic background: wild type) 0.698 ± 0.022.

As to MRLTHKSKKKMK [SUE1 C-terminal 12 aa], the protein stability index runs as follows: under setting [1], 0.72 ± 0.026; (genetic background: wild type) 0.695 ± 0.0075.

For MSKLGLIPKDFQ [HIS4 C-terminal 12 aa], the protein stability index amounted to 0.6931 ± 0.0056 under setting [1] and 0.707 ± 0.036 (genetic background: wild type).

MSLLGLVPVDRM [MSR1 C-terminal 12 aa]: the protein stability index under setting [1] was 0.696 ± 0.00089 and the protein stability index (genetic background: wild type) worked out at 0.688 ± 0.023.

For MTGILKDYSHRV [TFA2 C-terminal 12 aa], the protein stability index reads like this: under setting [1], 0.715 ± 0.0083; (genetic background: wild type) 0.723 ± 0.063.

In the case of MVNEWIHGGFSL [PRC1 C-terminal 12 aa], the protein stability index runs as follows: under setting [1], 0.73 ± 0.025; (genetic background: wild type) 0.702 ± 0.019.

Consider MYGLGIRDCCIM [RCY1 C-terminal 12 aa], for which the protein stability index runs as follows: under setting [1], 0.7921 ± 0.0075; (genetic background: wild type) 0.776 ± 0.088.

In the case of NAIKNWTGVNVK [MIC26 C-terminal 12 aa], the protein stability index is, setting by setting: under setting [1], 0.7 ± 0.0014; (genetic background: wild type) 0.695 ± 0.0088.

NAKKGSKIEEIE [PTC3 C-terminal 12 aa] had a protein stability index under setting [1] of 0.6731 ± 0.0047 and a protein stability index (genetic background: wild type) of 0.6656 ± 0.0058.

On to NCIETFVAEKTT [SRB6 C-terminal 12 aa], for which the protein stability index was found to be 0.679 ± 0.014 under setting [1] and 0.669 ± 0.0071 (genetic background: wild type).

For the sequence NDGTFLDEVTKN [OPI10 C-terminal 12 aa], the protein stability index is 0.6922 ± 0.0066 under setting [1] and 0.687 ± 0.03 (genetic background: wild type).

With NDKGEQVVGGNE [TMA16 C-terminal 12 aa], the protein stability index runs as follows: under setting [1], 0.663 ± 0.042; (genetic background: wild type) 0.717 ± 0.04.

For NDLITYMTKAAK [CYC7 C-terminal 12 aa], the protein stability index came to 0.722 ± 0.031 under setting [1] and 0.756 ± 0.14 (genetic background: wild type).

With NEDSMEIDDDLD [HSP104 C-terminal 12 aa], the protein stability index is 0.6988 ± 0.0014 under setting [1] and 0.665 ± 0.021 (genetic background: wild type).

NEKENSLSLSRL [MGT1 C-terminal 12 aa]: the protein stability index is, setting by setting: under setting [1], 0.7183 ± 0.0017; (genetic background: wild type) 0.752 ± 0.058.

Turning to NELRMSSSSLTN [VHS1 C-terminal 12 aa], the protein stability index came to 0.6718 ± 0.0013 under setting [1] and 0.693 ± 0.0083 (genetic background: wild type).

For the sequence NERGLSSNYQTI [FMP42 C-terminal 12 aa], the protein stability index is 0.7217 ± 0.0025 under setting [1] and 0.6736 ± 0.0013 (genetic background: wild type).

With NGKTIKDATDNK [COX19 C-terminal 12 aa], the protein stability index is, setting by setting: under setting [1], 0.669 ± 0.015; (genetic background: wild type) 0.6957 ± 0.0059.

Take NGRYIDTEFESM [LCB4 C-terminal 12 aa]: the protein stability index under setting [1] amounted to 0.6854 ± 0.0012 and the protein stability index (genetic background: wild type) stood at 0.681 ± 0.022.
